{
  "source": "patent US20080058275",
  "about": "“Rna Interferases And Methods Of Use Thereof” (published 2008)",
  "key": {"[1]": {"target": "MazE-MazF(His)6 complex (Escherichia coli, UniProt P0AE72;P0AE70 SEQ:1-82,SEQ:1-111)", "experiment": "EMSA; 1 uM complex", "details": "tags: C-terminal His6 on MazF; chain copies: MazF2-MazE2-MazF2 (stated); label: 32P"}, "[2]": {"target": "(His)6MazE(R48A) (Escherichia coli, UniProt P0AE72 SEQ:1-82, R48A)", "experiment": "EMSA; data not shown", "details": "tags: N-terminal His6; chain copies: 2; label: 32P"}, "[3]": {"target": "(His)6MazE(F53A) (Escherichia coli, UniProt P0AE72 SEQ:1-82, F53A)", "experiment": "EMSA; data not shown", "details": "tags: N-terminal His6; chain copies: 2; label: 32P"}, "[4]": {"target": "(His)6MazE(E57Q) (Escherichia coli, UniProt P0AE72 SEQ:1-82, E57Q)", "experiment": "EMSA; data not shown", "details": "tags: N-terminal His6; chain copies: 2; label: 32P"}, "[5]": {"target": "MazF (Escherichia coli, UniProt P0AE70 SEQ:1-111)", "experiment": "EMSA; no binding up to 20 uM", "details": "tags: untagged; chain copies: 2; label: 32P"}, "[6]": {"target": "(His)6MazE(S12A) (Escherichia coli, UniProt P0AE72 SEQ:1-82, S12A)", "experiment": "EMSA; 4 uM", "details": "tags: N-terminal His6; chain copies: 2; label: 32P"}, "[7]": {"target": "(His)6MazE(R16A) (Escherichia coli, UniProt P0AE72 SEQ:1-82, R16A)", "experiment": "EMSA; 4 uM", "details": "tags: N-terminal His6; chain copies: 2; label: 32P"}, "[8]": {"target": "(His)6MazE(R8A) (Escherichia coli, UniProt P0AE72 SEQ:1-82, R8A)", "experiment": "EMSA; 4 uM", "details": "tags: N-terminal His6; chain copies: 2; label: 32P"}, "[9]": {"target": "(His)6MazE(K7A) (Escherichia coli, UniProt P0AE72 SEQ:1-82, K7A)", "experiment": "EMSA; 4 uM", "details": "tags: N-terminal His6; chain copies: 2; label: 32P"}, "[10]": {"target": "(His)6MazE-MazF complex (Escherichia coli, UniProt P0AE72;P0AE70 SEQ:1-82,SEQ:1-111)", "experiment": "EMSA; shift at 0.2 uM MazE, MazE:MazF 1:2; more than ten-fold enhancement over MazE", "details": "tags: N-terminal His6 on MazE; chain copies: MazF2-MazE2-MazF2 (stated); label: 32P"}, "[11]": {"target": "(His)6MazE (Escherichia coli, UniProt P0AE72 SEQ:1-82)", "experiment": "EMSA; discrete shift at 2 uM or higher; smear at 0.4-1.0 uM; 5 mM MgCl2, poly(dI-dC), 4 C", "details": "tags: N-terminal His6; chain copies: 2 (inferred); label: 32P"}},
  "data": [
    {"binder": "mazEF promoter 50-bp (dsDNA) DNA 1: GCTCGTATCTACAATGTAGATTGATATATACTGTATCTACATATGATAGC DNA 2: GCTATCATATGTAGATACAGTATATATCAATCTACATTGTAGATACGAGC", "values": [
      {"measurement": "binding result", "setting": "[1]", "result": "binds"},
      {"measurement": "binding result", "setting": "[2]", "result": "binds"},
      {"measurement": "binding result", "setting": "[3]", "result": "binds"},
      {"measurement": "binding result", "setting": "[4]", "result": "binds"},
      {"measurement": "binding result", "setting": "[5]", "result": "no binding"},
      {"measurement": "binding result", "setting": "[6]", "result": "no binding"},
      {"measurement": "binding result", "setting": "[7]", "result": "no binding"},
      {"measurement": "binding result", "setting": "[8]", "result": "no binding"},
      {"measurement": "binding result", "setting": "[9]", "result": "no binding"},
      {"measurement": "binding result", "setting": "[10]", "result": "binds"},
      {"measurement": "binding result", "setting": "[11]", "result": "binds"}
    ]}
  ]
}
